B1: G236D/S267E/L328F (antibody, human IgG1, kappa)
heavy: EVQLVESGGGLVKPGGSLKLSCAASGYTFTSYVMHWVRQAPGKGLEWIGYINPYNDGTKYNEKFQGRVTISSDKSISTAYMELSSLRSEDTAMYYCARGTYYYGTRVFDYWGQGTLVTVSSASTKGPSVFPLAPSSKSTSGGTAALGCLVKDYFPEPVTVSWNSGALTSGVHTFPAVLQSSGLYSLSSVVTVPSSSLGTQTYICNVNHKPSNTKVDKKVEPKSCDKTHTCPPCPAPELLDGPSVFLFPPKPKDTLMISRTPEVTCVVVDVEHEDPEVKFNWYVDGVEVHNAKTKPREEQYNSTYRVVSVLTVLHQDWLNGKEYKCKVSNKAFPAPIEKTISKAKGQPREPQVYTLPPSREEMTKNQVSLTCLVKGFYPSDIAVEWESNGQPENNYKTTPPVLDSDGSFFLYSKLTVDKSRWQQGNVFSCSVMHEALHNHYTQKSLSLSPGK
light: DIVMTQSPATLSLSPGERATLSCRSSKSLQNVNGNTYLYWFQQKPGQSPQLLIYRMSNLNSGVPDRFSGSGSGTEFTLTISSLEPEDFAVYYCMQHLEYPITFGAGTKLEIKRTVAAPSVFIFPPSDEQLKSGTASVVCLLNNFYPREAKVQWKVDNALQSGNSQESVTEQDSKDSTYSLSSTLTLSKADYEKHKVYACEVTHQGLSSPVTKSFNRGEC
notes: HuAM4G7 IgG1 Fc variant
B2: L234E/S267E (antibody, human IgG1, kappa)
heavy: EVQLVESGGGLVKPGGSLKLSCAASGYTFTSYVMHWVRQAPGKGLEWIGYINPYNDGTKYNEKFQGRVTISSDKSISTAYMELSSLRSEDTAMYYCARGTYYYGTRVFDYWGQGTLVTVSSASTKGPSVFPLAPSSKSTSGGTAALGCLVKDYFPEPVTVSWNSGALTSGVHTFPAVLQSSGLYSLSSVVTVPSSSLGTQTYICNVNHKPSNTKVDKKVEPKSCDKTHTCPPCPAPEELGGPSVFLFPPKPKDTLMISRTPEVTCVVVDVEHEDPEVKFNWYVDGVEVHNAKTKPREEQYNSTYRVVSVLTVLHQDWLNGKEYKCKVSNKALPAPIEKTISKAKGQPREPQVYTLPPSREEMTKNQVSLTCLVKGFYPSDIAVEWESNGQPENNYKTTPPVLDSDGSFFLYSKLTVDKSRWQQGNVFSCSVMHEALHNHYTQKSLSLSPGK
light: DIVMTQSPATLSLSPGERATLSCRSSKSLQNVNGNTYLYWFQQKPGQSPQLLIYRMSNLNSGVPDRFSGSGSGTEFTLTISSLEPEDFAVYYCMQHLEYPITFGAGTKLEIKRTVAAPSVFIFPPSDEQLKSGTASVVCLLNNFYPREAKVQWKVDNALQSGNSQESVTEQDSKDSTYSLSSTLTLSKADYEKHKVYACEVTHQGLSSPVTKSFNRGEC
notes: HuAM4G7 IgG1 Fc variant
B3: L235A (antibody, human IgG1, kappa)
heavy: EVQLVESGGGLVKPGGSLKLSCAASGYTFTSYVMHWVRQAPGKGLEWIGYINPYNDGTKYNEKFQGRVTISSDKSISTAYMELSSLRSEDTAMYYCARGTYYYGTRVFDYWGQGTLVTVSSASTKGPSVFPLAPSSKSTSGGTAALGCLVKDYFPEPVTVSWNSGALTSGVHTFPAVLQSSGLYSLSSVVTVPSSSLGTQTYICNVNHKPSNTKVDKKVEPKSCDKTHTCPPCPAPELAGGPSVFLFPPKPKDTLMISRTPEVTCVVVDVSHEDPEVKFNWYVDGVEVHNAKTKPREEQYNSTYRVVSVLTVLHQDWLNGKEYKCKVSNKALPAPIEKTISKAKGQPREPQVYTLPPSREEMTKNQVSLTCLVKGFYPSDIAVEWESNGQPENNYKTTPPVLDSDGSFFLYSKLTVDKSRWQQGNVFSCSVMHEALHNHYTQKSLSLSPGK
light: DIVMTQSPATLSLSPGERATLSCRSSKSLQNVNGNTYLYWFQQKPGQSPQLLIYRMSNLNSGVPDRFSGSGSGTEFTLTISSLEPEDFAVYYCMQHLEYPITFGAGTKLEIKRTVAAPSVFIFPPSDEQLKSGTASVVCLLNNFYPREAKVQWKVDNALQSGNSQESVTEQDSKDSTYSLSSTLTLSKADYEKHKVYACEVTHQGLSSPVTKSFNRGEC
notes: HuAM4G7 IgG1 Fc variant
B4: G237D/S267E (antibody, human IgG1, kappa)
heavy: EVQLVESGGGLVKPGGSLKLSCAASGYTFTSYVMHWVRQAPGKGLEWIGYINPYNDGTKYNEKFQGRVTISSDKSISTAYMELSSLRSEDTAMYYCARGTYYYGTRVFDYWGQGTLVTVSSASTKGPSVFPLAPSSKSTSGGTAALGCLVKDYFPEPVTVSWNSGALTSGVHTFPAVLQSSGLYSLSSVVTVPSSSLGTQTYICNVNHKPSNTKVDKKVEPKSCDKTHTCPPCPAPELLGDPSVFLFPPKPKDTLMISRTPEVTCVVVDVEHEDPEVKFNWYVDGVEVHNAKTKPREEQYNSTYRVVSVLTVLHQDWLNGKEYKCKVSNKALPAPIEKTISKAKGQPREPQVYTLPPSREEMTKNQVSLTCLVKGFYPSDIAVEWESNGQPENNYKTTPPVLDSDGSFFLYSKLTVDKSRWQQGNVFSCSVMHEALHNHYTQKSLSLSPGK
light: DIVMTQSPATLSLSPGERATLSCRSSKSLQNVNGNTYLYWFQQKPGQSPQLLIYRMSNLNSGVPDRFSGSGSGTEFTLTISSLEPEDFAVYYCMQHLEYPITFGAGTKLEIKRTVAAPSVFIFPPSDEQLKSGTASVVCLLNNFYPREAKVQWKVDNALQSGNSQESVTEQDSKDSTYSLSSTLTLSKADYEKHKVYACEVTHQGLSSPVTKSFNRGEC
notes: HuAM4G7 IgG1 Fc variant
B5: H268E (antibody, human IgG1, kappa)
heavy: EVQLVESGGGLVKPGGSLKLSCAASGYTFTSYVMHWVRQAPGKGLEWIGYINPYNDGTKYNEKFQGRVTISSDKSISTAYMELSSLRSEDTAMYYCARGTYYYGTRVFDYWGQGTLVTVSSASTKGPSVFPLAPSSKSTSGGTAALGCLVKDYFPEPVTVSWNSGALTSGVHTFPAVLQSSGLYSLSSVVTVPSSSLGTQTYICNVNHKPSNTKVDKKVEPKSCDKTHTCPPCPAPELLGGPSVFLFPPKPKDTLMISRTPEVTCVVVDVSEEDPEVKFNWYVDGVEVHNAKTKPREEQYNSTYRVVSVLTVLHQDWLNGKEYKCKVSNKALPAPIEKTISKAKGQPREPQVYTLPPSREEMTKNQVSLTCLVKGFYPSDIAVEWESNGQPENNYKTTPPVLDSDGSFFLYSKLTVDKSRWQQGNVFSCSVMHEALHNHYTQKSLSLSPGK
light: DIVMTQSPATLSLSPGERATLSCRSSKSLQNVNGNTYLYWFQQKPGQSPQLLIYRMSNLNSGVPDRFSGSGSGTEFTLTISSLEPEDFAVYYCMQHLEYPITFGAGTKLEIKRTVAAPSVFIFPPSDEQLKSGTASVVCLLNNFYPREAKVQWKVDNALQSGNSQESVTEQDSKDSTYSLSSTLTLSKADYEKHKVYACEVTHQGLSSPVTKSFNRGEC
notes: HuAM4G7 IgG1 Fc variant
B6: G237A (antibody, human IgG1, kappa)
heavy: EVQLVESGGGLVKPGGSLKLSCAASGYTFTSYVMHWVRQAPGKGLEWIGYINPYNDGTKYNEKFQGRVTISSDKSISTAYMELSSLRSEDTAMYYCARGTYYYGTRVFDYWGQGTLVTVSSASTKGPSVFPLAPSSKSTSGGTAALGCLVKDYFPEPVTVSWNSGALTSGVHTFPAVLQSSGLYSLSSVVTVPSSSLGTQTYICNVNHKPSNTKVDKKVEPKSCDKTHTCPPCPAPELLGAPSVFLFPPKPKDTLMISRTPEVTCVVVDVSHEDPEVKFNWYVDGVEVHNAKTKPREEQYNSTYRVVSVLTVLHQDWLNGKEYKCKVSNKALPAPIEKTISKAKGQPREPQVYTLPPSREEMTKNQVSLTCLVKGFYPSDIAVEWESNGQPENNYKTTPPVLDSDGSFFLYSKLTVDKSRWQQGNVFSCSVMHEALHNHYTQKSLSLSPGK
light: DIVMTQSPATLSLSPGERATLSCRSSKSLQNVNGNTYLYWFQQKPGQSPQLLIYRMSNLNSGVPDRFSGSGSGTEFTLTISSLEPEDFAVYYCMQHLEYPITFGAGTKLEIKRTVAAPSVFIFPPSDEQLKSGTASVVCLLNNFYPREAKVQWKVDNALQSGNSQESVTEQDSKDSTYSLSSTLTLSKADYEKHKVYACEVTHQGLSSPVTKSFNRGEC
notes: HuAM4G7 IgG1 Fc variant
B7: G236N/S267E (antibody, human IgG1, kappa)
heavy: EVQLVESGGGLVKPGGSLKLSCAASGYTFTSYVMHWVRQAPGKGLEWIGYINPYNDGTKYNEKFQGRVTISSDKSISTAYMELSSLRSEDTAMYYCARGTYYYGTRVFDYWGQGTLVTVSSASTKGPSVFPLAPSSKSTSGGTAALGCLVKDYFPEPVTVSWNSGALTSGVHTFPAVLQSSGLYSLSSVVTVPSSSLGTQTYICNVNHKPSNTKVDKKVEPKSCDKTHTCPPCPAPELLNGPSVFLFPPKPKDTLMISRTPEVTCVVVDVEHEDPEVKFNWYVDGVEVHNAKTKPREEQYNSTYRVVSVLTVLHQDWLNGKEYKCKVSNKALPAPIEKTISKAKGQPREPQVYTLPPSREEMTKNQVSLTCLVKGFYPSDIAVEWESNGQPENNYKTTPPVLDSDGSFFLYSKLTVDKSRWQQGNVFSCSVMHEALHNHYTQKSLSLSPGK
light: DIVMTQSPATLSLSPGERATLSCRSSKSLQNVNGNTYLYWFQQKPGQSPQLLIYRMSNLNSGVPDRFSGSGSGTEFTLTISSLEPEDFAVYYCMQHLEYPITFGAGTKLEIKRTVAAPSVFIFPPSDEQLKSGTASVVCLLNNFYPREAKVQWKVDNALQSGNSQESVTEQDSKDSTYSLSSTLTLSKADYEKHKVYACEVTHQGLSSPVTKSFNRGEC
notes: HuAM4G7 IgG1 Fc variant
B8: L234F/S267E (antibody, human IgG1, kappa)
heavy: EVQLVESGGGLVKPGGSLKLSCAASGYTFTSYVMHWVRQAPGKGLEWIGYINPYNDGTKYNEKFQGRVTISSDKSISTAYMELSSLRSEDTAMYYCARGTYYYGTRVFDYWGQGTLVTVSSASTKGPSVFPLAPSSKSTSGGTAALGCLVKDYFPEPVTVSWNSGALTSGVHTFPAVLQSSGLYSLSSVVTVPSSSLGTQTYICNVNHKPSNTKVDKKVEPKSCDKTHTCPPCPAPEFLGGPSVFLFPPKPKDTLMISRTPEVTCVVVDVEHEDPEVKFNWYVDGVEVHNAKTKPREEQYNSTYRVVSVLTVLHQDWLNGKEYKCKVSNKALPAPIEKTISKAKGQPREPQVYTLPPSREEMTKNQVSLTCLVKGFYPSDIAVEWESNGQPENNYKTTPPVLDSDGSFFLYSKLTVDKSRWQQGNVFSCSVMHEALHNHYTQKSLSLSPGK
light: DIVMTQSPATLSLSPGERATLSCRSSKSLQNVNGNTYLYWFQQKPGQSPQLLIYRMSNLNSGVPDRFSGSGSGTEFTLTISSLEPEDFAVYYCMQHLEYPITFGAGTKLEIKRTVAAPSVFIFPPSDEQLKSGTASVVCLLNNFYPREAKVQWKVDNALQSGNSQESVTEQDSKDSTYSLSSTLTLSKADYEKHKVYACEVTHQGLSSPVTKSFNRGEC
notes: HuAM4G7 IgG1 Fc variant
B9: L234E/S267E/L328F (antibody, human IgG1, kappa)
heavy: EVQLVESGGGLVKPGGSLKLSCAASGYTFTSYVMHWVRQAPGKGLEWIGYINPYNDGTKYNEKFQGRVTISSDKSISTAYMELSSLRSEDTAMYYCARGTYYYGTRVFDYWGQGTLVTVSSASTKGPSVFPLAPSSKSTSGGTAALGCLVKDYFPEPVTVSWNSGALTSGVHTFPAVLQSSGLYSLSSVVTVPSSSLGTQTYICNVNHKPSNTKVDKKVEPKSCDKTHTCPPCPAPEELGGPSVFLFPPKPKDTLMISRTPEVTCVVVDVEHEDPEVKFNWYVDGVEVHNAKTKPREEQYNSTYRVVSVLTVLHQDWLNGKEYKCKVSNKAFPAPIEKTISKAKGQPREPQVYTLPPSREEMTKNQVSLTCLVKGFYPSDIAVEWESNGQPENNYKTTPPVLDSDGSFFLYSKLTVDKSRWQQGNVFSCSVMHEALHNHYTQKSLSLSPGK
light: DIVMTQSPATLSLSPGERATLSCRSSKSLQNVNGNTYLYWFQQKPGQSPQLLIYRMSNLNSGVPDRFSGSGSGTEFTLTISSLEPEDFAVYYCMQHLEYPITFGAGTKLEIKRTVAAPSVFIFPPSDEQLKSGTASVVCLLNNFYPREAKVQWKVDNALQSGNSQESVTEQDSKDSTYSLSSTLTLSKADYEKHKVYACEVTHQGLSSPVTKSFNRGEC
notes: HuAM4G7 IgG1 Fc variant
B10: L234F (antibody, human IgG1, kappa)
heavy: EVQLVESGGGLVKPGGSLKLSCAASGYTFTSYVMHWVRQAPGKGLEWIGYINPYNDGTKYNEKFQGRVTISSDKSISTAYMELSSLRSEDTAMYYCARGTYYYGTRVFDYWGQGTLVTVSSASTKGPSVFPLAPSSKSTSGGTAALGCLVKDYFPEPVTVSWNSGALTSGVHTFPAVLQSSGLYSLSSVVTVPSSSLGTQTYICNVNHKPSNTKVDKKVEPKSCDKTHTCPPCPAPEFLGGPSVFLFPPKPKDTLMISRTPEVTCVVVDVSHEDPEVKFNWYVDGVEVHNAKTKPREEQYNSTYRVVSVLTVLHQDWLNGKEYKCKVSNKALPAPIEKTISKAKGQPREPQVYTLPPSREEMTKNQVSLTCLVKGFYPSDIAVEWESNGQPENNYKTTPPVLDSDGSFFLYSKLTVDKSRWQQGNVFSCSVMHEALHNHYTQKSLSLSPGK
light: DIVMTQSPATLSLSPGERATLSCRSSKSLQNVNGNTYLYWFQQKPGQSPQLLIYRMSNLNSGVPDRFSGSGSGTEFTLTISSLEPEDFAVYYCMQHLEYPITFGAGTKLEIKRTVAAPSVFIFPPSDEQLKSGTASVVCLLNNFYPREAKVQWKVDNALQSGNSQESVTEQDSKDSTYSLSSTLTLSKADYEKHKVYACEVTHQGLSSPVTKSFNRGEC
notes: HuAM4G7 IgG1 Fc variant
B11: H268D (antibody, human IgG1, kappa)
heavy: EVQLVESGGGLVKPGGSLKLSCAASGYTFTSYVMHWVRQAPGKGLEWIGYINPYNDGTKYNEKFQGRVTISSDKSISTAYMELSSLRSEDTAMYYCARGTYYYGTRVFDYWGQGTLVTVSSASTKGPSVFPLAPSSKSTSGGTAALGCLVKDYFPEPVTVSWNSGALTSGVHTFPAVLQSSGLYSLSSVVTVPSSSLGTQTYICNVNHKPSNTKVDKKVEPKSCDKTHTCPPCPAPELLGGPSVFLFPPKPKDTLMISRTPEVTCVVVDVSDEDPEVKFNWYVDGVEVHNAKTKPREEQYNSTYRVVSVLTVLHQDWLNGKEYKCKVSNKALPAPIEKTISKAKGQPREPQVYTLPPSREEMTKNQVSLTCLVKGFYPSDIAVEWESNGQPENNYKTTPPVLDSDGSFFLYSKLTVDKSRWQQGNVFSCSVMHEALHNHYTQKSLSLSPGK
light: DIVMTQSPATLSLSPGERATLSCRSSKSLQNVNGNTYLYWFQQKPGQSPQLLIYRMSNLNSGVPDRFSGSGSGTEFTLTISSLEPEDFAVYYCMQHLEYPITFGAGTKLEIKRTVAAPSVFIFPPSDEQLKSGTASVVCLLNNFYPREAKVQWKVDNALQSGNSQESVTEQDSKDSTYSLSSTLTLSKADYEKHKVYACEVTHQGLSSPVTKSFNRGEC
notes: HuAM4G7 IgG1 Fc variant

Legend:
Test in all cases: SPR (Biacore)
[1] = target: T1, human V158 FcγRIIIa receptor protein (6xHis and GST tags) (human, UniProt P08637 17-208, limits assumed)
T1 construct: also called VIIIa

FcγRIIaR = target: T2, FcγRIIaR (human, UniProt P12318)
T2 construct: recombinant receptor protein with 6xHis and GST tags; also called R131 FcγRIIa
T2 sequence (receptor, looked up): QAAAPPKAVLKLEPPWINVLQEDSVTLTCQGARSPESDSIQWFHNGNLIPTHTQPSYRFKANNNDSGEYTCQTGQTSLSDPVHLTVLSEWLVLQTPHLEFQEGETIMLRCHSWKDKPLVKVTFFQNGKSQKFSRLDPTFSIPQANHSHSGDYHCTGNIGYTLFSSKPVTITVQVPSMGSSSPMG

[2] = target: T3, human H131 FcγRIIa receptor protein (6xHis and GST tags) (human, UniProt P12318 34-217, limits assumed)
T3 construct: also called HIIa
T3 sequence (looked up): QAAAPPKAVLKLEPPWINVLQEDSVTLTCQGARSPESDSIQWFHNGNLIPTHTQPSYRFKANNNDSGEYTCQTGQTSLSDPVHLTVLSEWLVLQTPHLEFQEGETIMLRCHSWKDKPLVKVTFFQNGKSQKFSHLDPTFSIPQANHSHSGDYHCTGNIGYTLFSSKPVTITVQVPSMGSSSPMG

[3] = target: T4, human FcγRI receptor protein (R&D Systems) (human, UniProt P12314 16-288)
T4 construct: also called CD64

[4] = target: T5, human FcγRIIb receptor protein (R&D Systems) (human, UniProt P31994 46-217)
T5 construct: Analyte injected over antibodies captured on a protein A/G chip (Biacore); also called CD32b
T5 sequence (looked up): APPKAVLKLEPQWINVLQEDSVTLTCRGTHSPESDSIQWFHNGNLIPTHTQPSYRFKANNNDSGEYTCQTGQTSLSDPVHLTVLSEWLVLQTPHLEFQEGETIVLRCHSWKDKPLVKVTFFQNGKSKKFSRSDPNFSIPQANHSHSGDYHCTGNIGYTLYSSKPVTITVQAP

T1 sequence (P08637 17-208 F176V limits assumed): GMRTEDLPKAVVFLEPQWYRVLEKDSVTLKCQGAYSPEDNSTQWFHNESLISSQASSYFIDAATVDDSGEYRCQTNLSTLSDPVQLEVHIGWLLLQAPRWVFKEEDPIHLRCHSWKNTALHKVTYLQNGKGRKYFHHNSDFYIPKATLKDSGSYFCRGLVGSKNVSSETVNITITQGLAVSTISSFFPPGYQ
T4 sequence (P12314 16-288 limits assumed): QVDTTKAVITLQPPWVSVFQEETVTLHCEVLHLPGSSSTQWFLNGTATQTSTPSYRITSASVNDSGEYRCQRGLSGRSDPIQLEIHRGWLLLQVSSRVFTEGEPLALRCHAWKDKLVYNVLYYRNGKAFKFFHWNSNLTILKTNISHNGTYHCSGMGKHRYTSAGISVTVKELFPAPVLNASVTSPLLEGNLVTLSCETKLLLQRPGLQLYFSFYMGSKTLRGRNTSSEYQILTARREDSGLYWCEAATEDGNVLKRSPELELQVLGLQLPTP

Row | Binder | binding result [1] | Fold FcγRIIaR (FcγRIIaR) | Fold FcγRIIaH [2] | Fold FcγRI [3] | Fold FcγRIIb [4] | binding result [2] | Fold FcγRIIIaV [1]
1 | B1 | no binding | 59.9 fold | 0.0301 fold | 0.0736 fold | 149 fold |  | 
2 | B2 | no binding | 10.7 fold |  | 0.131 fold | 15.1 fold | no binding | 
3 | B3 |  | 0.166 fold | 0.0486 fold | 0.0179 fold | 0.351 fold |  | 0.314 fold
4 | B4 | no binding | 13.6 fold |  | 0.0874 fold | 17 fold | no binding | 
5 | B5 |  | 3.19 fold | 1.43 fold | 2.74 fold | 2.62 fold |  | 2.19 fold
6 | B6 | no binding | 0.704 fold |  | 0.0108 fold | 0.191 fold | no binding | 
7 | B7 | no binding | 3.27 fold |  | 0.0355 fold | 19.8 fold | no binding | 
8 | B8 |  | 20.7 fold | 0.509 fold | 0.661 fold | 26.4 fold |  | 0.0938 fold
9 | B9 | no binding | 174 fold | 0.0725 fold | 0.0425 fold | 195 fold |  | 
10 | B10 | no binding | 0.228 fold |  | 0.0362 fold | 0.409 fold | no binding | 
11 | B11 |  | 4.19 fold | 1.89 fold | 2.35 fold | 3.06 fold |  | 3.08 fold

— patent US20170355766A1 (Xencor, published 2017)
